This assay concerns the target RBD protein of SARS-COV-1 (SARS-CoV-1, UniProt P59594 306-527). The assay is described as follows: ELISA ('the same binding assay').

B1: FSR16m (designed binder)
chain: MGMEQKLISEEDLDGYIPEAPRDGQAYVRKDGEWVLLSTFLGGGGSLQGGGGSLQGSDLGKKLLEAARAGQDDEVRILMANGADVNALDLFGVTPLHLAAERGHLEIVEVLLKNGADVNAGDAFGRTPLHLAALGGHLEIVEVLLKNGADVNACDLYGVTPLHLAAGLGHLEIVEVLLKNGADVNAQDKFGKTAFDISIDNGNEDLAEILQSSSKLAAALEHHHHHH
As for B1, the binding result is listed as “no binding”.
